Data from PMC11468790, “New Bacterial Aryl Sulfotransferases: Effective Tools for Sulfation of Polyphenols” (Journal of Agricultural and Food Chemistry, 2024).

Tests used:
[1] = tested on: O=[N+]([O-])c1ccc(OS(=O)(=O)O)cc1; assay: purified protein; conditions: varied donor pNPS 0.02-50 mM, acceptor phenol (5-200 mM), 30 °C, activity buffer Tris-glycine pH 8.9
[2] = tested on: T1, O=[N+]([O-])c1ccc(OS(=O)(=O)O)cc1; assay: purified protein; type: biochemical, Desulfosporosinus sp. HMP52; conditions: varied donor pNPS 0.02-50 mM, acceptor phenol (5-200 mM), 30 °C, activity buffer Tris-glycine pH 8.9
T1 construct: C-terminal His6 tag, pET-26b(+) NcoI/SacI, E. coli BL21(DE3)pLysS, IMAC, ca. 70 kDa

Substance	Km [1] [µM]	kcat [1] [s⁻¹]	kcat/Km [1] [M⁻¹ s⁻¹]	Km [2] [µM]	kcat [2] [s⁻¹]	kcat/Km [2] [M⁻¹ s⁻¹]
DalAST (Desulfofalx alkaliphila)	34 ± 2	0.705 ± 0.007	21000			
DsAST (Desulfosporosinus sp. HMP52)				570 ± 20	32.5 ± 0.4	57000
